Test results: patent US12202887B2, “Eradication of bacterial biofilm using anti-amyloid monoclonal antibodies” (priority 2018, dated 2025)
Like-named read-outs stand apart in the source and are kept apart here.

Columns and labels:
S. Typhimurium biofilm [1] = assay: S. Typhimurium biofilms with or without ALZ.3H3, then ampicillin or DNase for 24 hours, Syto9 imaging; assay type: cell-based; conditions: for Overall biofilm appearance: wildtype biofilms treated alone for 24 hours after biofilm establishment
From the text: Biofilms enhance the recalcitrance of bacteria to antibiotics (Keren et al., 2004, FEMS Microbiol Lett, 230(1):13-8, Brown et al., 1988, J Antimicrob Chemother, 22(6):777-80, Stewart, 2002, Int J Med Microbiol, 292(2):107-13). To enhance the clearance of bacterial biofilms, the structure of the biofilm was altered by employing ALZ.3H3 and then the biofilm was subjected to antibiotics to kill the bacteria within the disperse biofilm. […] an additional integral component of S. Typhimurium biofilms, wildtype or ALZ.3H3 incubated biofilms were exposed to X DNase treatment for an additional 24 hours. Biofilms were then stained with Syto9 and visualized using CSML. Excessive washing steps were avoided in aims to examine the architecture of the biofilms.

[2] = system: S. Typhimurium (STM) biofilm; assay: Colony forming units per biofilm on glass coverslips, S. Typhimurium
Procedure: (§1) Biofilms of S. Typhimurium (STM) or E. coli UTI89 grown in the absence or presence of 3H3 (250 ug/ml, 125 ug/ml, 50 ug/ml, 25 ug/ml, 10 ug/ml, 1 ug/ml) as well as grown with 0.5 mg/ml control A6 antibody on top of sterile glass coverslips for 72 hours at 26 C in a sterile 24 well dish. S. Typhimurium curli mutant (csgBA) and UTI89 curli mutant (csgBA) were also grown as a negative controls. In select conditions, biofilms were incubated for an additional 24 hours at 26 C with 30 ug/ml Ampicillin (Amp). The sterile glass coverslip, which was used as a surface for the biofilm to grow upon, was placed in a sterile 15 ml conical tube that contained 3 ml of sterile PBS. The biofilm was sonicated for 10 seconds at a setting of 4 using a ThermoFisher Sonic Dismembrator. Bacteria were enumerated by serial diluting 1:10 in sterile PBS and spot plating on agar plates.
(§2) Biofilms of S. Typhimurium (STM) or E. coli UTI89 grown in the absence or presence of 3H3 (250 ug/ml, 125 ug/ml, 50 ug/ml, 25 ug/ml, 10 ug/ml, 1 ug/ml) as well as grown with 0.5 mg/ml control A6 antibody on top of sterile glass coverslips for 72 hours at 26 C in a sterile 24 well dish. S. Typhimurium curli mutant (csgBA) and UTI89 curli mutant (csgBA) were also grown as a negative controls. In select conditions, biofilms were incubated for an additional 24 hours at 26 C with 30 ug/ml Ampicillin (Amp). […]

[3] = system: Histadine tagged CsgA (His-CsgA), curli; assay: Thioflavin T (ThT) fibrillization assay of His-CsgA; assay type: biochemical
Procedure: The formation of monomers into mature curli fibrils can be monitored by incubation with Thioflavin T (ThT). Fluorescence of ThT increases as it binds to amyloid fibril, allowing the amyloid formation process to be measured spectroscopically. The formation of amyloid fibers can be defined by a three stage sigmoidal curve (Dueholm et al., 2011, Biochemistry, 50(39):8281-90; Wang et al., 2007, J Biol Chem, 282(6):3713-9). In the first stage, monomeric subunits are slow to self-associate and ThT fluorescence is minimal (Naiki et al., 1991, Lab Invest, 65(1):104-10). The reaction exponential increases as monomeric seeds oligomerize and continue to elongate (Naiki et al., 1991, Lab Invest, 65(1):104-10). This process is marked by a rapid increase in ThT fluorescence (Naiki et al., 1991, Lab Invest, 65(1):104-10). The oligomers elongate into mature fibrils and Tht fluorescence peaks (Dueholm et al., 2011, Biochemistry, 50(39):8281-90; Wang et al., 2007, J Biol Chem, 282(6):3713-9). […] Histadine tagged CsgA (His-CsgA), which will naturally self-associate and fibrillize, was incubated with 0.5 mg/ml ALZ.3H3 and the fibrillization reaction was monitored using ThT. As controls synthetic peptides CsgAR4-5 and CsgAR4-5N122A were incubated with Tht and the fribrillization reaction was monitored in parallel. […]

[4] = system: S. Typhimurium biofilm on medical grade catheters; assay: In vitro catheter assay: Salmonella biofilms grown on sterile i.v. catheters, GFP and Congo red; conditions: 0.5 mg/ml for 72 hours
Procedure: (§3) Salmonella biofilms were grown alone or in the presence of ALZ3H3 antibody upon sterile i.v. catheters. Bacteria were labeled green using GFP. Congo red was used to stain for curli amyloid fibrils. […] To investigate the combination effect of ALZ3H3 and ampicillin on biofilm growth, mice were given 1 mg/ml Ampicillin in the drinking water 24 hours prior to catheter insertion. Sterile i.v. catheters were incubated for 24 hours with Salmonella typhimurium prior to insertion into the back flanks of Balb/C mice. 24 and 28 hours after catheter insertion 100 ug of ALZ3H3 was percutaneously inserted into the lumen of the catheter. 72 hours after catheter insertion, mice were euthanized and the catheters were removed. Bacteria were labeled green using GFP. Congo red was used to stain for curli amyloid fibrils. Catheters autofluoresced green.

S. Typhimurium biofilm [5] = assay: S. Typhimurium biofilms established in presence of mAb, Syto9 stain, CSLM, ImageJ particle count, supernatant plating; assay type: cell-based; conditions: 0.5 mg/ml
Procedure: After growth, biofilms were stained with Syto9 and imaged using CSLM. Three dimensional architecture was examined by creating 3D surface plots using ImageJ. […] To quantify the disperse biofilm created by treatment with ALZ.3H3, through the use of ImageJ all particles above the thickness of a wild-type S. Typhimurium ([…]) was used to set the threshold value, and these threshold parameters were applied to subsequent treatments (FIG. 1B). […] The bacteria recovered from the supernatants is representative of the loose disperse biofilm matrix that is easily dissociated from the biomass.

[6] = system: Salmonella typhimurium catheter biofilm; assay: In vivo catheter assay: Salmonella typhimurium colonized catheters inserted into back flanks of mice
Procedure: as §3

[7] = system: pre-established S. Typhimurium biofilms; assay: mAb added to pre-established S. Typhimurium biofilms, CSLM and particle count; assay type: cell-based
Procedure: To determine if ALZ.3H3 can reduce biofilm formation of pre-established biofilms of S. Typhimurium, 0.5 mg/ml of ALZ.3H3 was added for an additional 24 hours to a 24 hour pre-established biofilm of S. Typhimurium, or 0.5 mg/ml of ALZ.3H3 was added for 24 hours to a 48 hour pre-established biofilms. These biofilms were then compared, respectively, to a 48 and 72 hour S. Typhimurium biofilm that was not exposed to ALZ.3H3 (FIG. 2A). Biofilms were stained with Syto9 and imaged using CSML. Biofilms were not wash extensively in order determine the impact of ALZ.3H3 on biofilm architecture. […] Using the thresholding technique described earlier, the number of particles above the thickness of the wild-type S. Typhimurium were counted.

E. coli UTI89 biofilm = assay: Colony forming units per biofilm on glass coverslips, E. coli UTI89
Procedure: as §1, §2

[8] = system: tau paired helical filaments (TAU PHF) isolated from AD brain homogenates; assay: SPR binding to tau paired helical filaments; conditions: antibody concentration 66.7 nM
tau paired helical filaments (TAU PHF) isolated from AD brain homogenates, sequence (P10636 623-695 limits assumed): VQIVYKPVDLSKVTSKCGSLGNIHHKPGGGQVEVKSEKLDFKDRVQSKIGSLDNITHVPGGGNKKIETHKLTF
Procedure: FIG. 14 depicts a surface plasma resonance (SPR) analysis for binding to aggregated islet amyloid peptide IAPP and tau paired helical filaments (TAU PHF) isolated from AD brain homogenates. The antibody concentrations used in this study were 110 nM for the IAPP and 66.7 nM for the Tau-PHF.
Human mAbs were assayed by SPR for binding to aggregated islet amyloid peptide IAPP and tau paired helical filaments (TAU PHF) isolated from AD brain homogenates (FIG. 14). The antibody concentrations used in this study were 110 nM for the IAPP and 66.7 nM for the Tau-PHF.

Aβ42 conformers = target: T1, Aβ42 conformers (Homo sapiens, UniProt P05067); assay: MAb binding to Aβ42 conformers by surface plasma resonance (SPR)
T1 construct: Amyloid beta derived diffusible ligands (ADDLs), also known as globulomers, produced from Aβ42
T1 sequence (P05067 672-713 limits assumed): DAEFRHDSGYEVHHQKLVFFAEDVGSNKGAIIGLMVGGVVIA
Procedure: MAb binding to Aβ42 conformers was measured by surface plasma resonance (SPR) (Table 1). Calculated affinity constants (KD) were obtained using Qdat software. […] The 3H3 binding data is qualitatively most similar to the 4G1 and 6E10 mAbs.

## CC1(C)S[C@@H]2[C@H](NC(=O)[C@H](N)c3ccccc3)C(=O)N2[C@H]1C(=O)O [ampicillin]
S. Typhimurium biofilm [1]
  Overall biofilm appearance: no alteration in overall biofilm appearance

## DNase
S. Typhimurium biofilm [1]
  Overall biofilm appearance: no alteration in overall biofilm appearance

B1: ALZ.3H3: human monoclonal antibody with pan-amyloid binding activity; heavy chain SEQ ID NO:2, light chain SEQ ID NO:35 (antibody)
VH: MEFGLSWVFLVALLRGVQCQVQLVESGGGVVQPGRSLRLSCAASGFSFSTYGMHWVRQAPGKGLEWVAVISYDGSRKYYADTGKGRFTISRDNSKNTLYLEMNGLRAEDTAVYHCAKDLRRELGFGNRDYHYYGMDAWGQGTTVTVSSASTK
light: LTQPRSVSGSPGQSVTMSCTGTNSDIGGYNYVSWYQQHPGKAPKLMIYDVYKRPSGVPDRFSGSKSGNTASLTISGLQAEDEADYYCCSYAGTNNLIFGGGTKLTVLGQPKAAPSVTLFPPSSEELQANKATLVCLISDFYPGAVTVAWKADSSPVKAGVETTTPSKQSNNKYAASSYLSLTPEQWKSHRSYSCQV
modifications: Chemically Synthesized, ALZ.3H3 Heavy Chain; Chemically Synthesized, ALZ.3H3 Light Chain
S. Typhimurium biofilm [1]; 0.5 mg/ml ALZ.3H3 during growth, then antibiotic treatment (ampicillin) for additional 24 hours
  Biofilm mass: significant reduction in the biofilm mass to the levels below detection
[2]; STM grown with 3H3 (1-250 ug/ml), 72 hours at 26 C
  CFU/biofilm: reduction of CFU/biofilm
[2]; STM grown with 3H3, then 30 ug/ml Ampicillin for additional 24 hours
  CFU/biofilm: additional reduction in CFU/biofilm
[3]; 0.5 mg/ml antibody, compared to synthetic peptide CsgAR4-5
  Lag time (t0) for His-CsgA to self-associate and oligomerize: significant increase in the lag times
[3]; His-CsgA with 0.5 mg/ml antibody
  ThT relative fluorescence units (fibril formation): significant reduction in the relative fluorescence units
[4]
  Catheter biofilm morphology: the biofilm was dispersed
  Congo red staining (curli fibers): no significant staining with Congo red
S. Typhimurium biofilm [5]; 72 hours at 28° C.
  Number of particles above the thickness of wild-type biofilm (20 μM): significant increase in number of particles
S. Typhimurium biofilm [5]; 72 hours at 28° C., 3D surface plots
  Biofilm architecture: altered the architecture of biofilm forming a disperse biofilm topography
S. Typhimurium biofilm [5]; plating supernatants
  Bacteria recovered from biofilm supernatant: significantly more bacteria was recovered
[6]; 100 ug percutaneously into catheter lumen, catheters removed at 72 hours
  Catheter biofilm morphology and curli: disperse morphology with little curli
[6]; combination: 100 ug ALZ3H3 into lumen + 1 mg/ml ampicillin in drinking water
  Amyloid incorporation in catheter biofilm: little to no amyloid incorporation
[7]; 24 hour pre-established biofilm + 0.5 mg/ml for 24 hours
  Number of particles above the thickness of wild-type biofilm: increased the number of particles
[7]; 24 hour pre-established biofilm + 0.5 mg/ml for additional 24 hours, vs 48 hour biofilm
  Biofilm matrix architecture: began to exhibit a more disperse matrix
[7]; 48 hour pre-established biofilm + 0.5 mg/ml for 24 hours
  Number of particles above the thickness of wild-type biofilm: the number of particles increased as well
[7]; 48 hour pre-established biofilm + 0.5 mg/ml for additional 24 hours, vs 72 hour biofilm
  Biofilm matrix architecture: the biofilm matrix was more disperse
E. coli UTI89 biofilm; UTI89 grown with 3H3 (1-250 ug/ml), 72 hours at 26 C
  CFU/biofilm: reduction of CFU/biofilm
E. coli UTI89 biofilm; UTI89 grown with 3H3, then 30 ug/ml Ampicillin for additional 24 hours
  CFU/biofilm: additional reduction in CFU/biofilm
[8]
  Binding to Tau PHF: notable for binding to Tau PHF

B2: 4A6: human anti-amyloid mAb cloned from B cells of an Alzheimer's patient; heavy chain SEQ ID NO:57, light chain SEQ ID NO:59 (antibody, V domains shown)
VH: QVQLVQSGAEVKKPGASMRVSCKASGYTYTAYYIHWMRQAPGQGLEWMGWINPHIGSTNYAEKFRGRVTLTRDTSIKTAYMDLDRLTSDDTAIYYCARVRAPRSISGTLNSYGMDVWGQGTTVAVSS
VL: DIVMTQSPSSLSASVGDRVVITCRASLRIGTFLNWYQQTQGRAPKLLVSSASTLQSGVPSRFSGSGSGTDFTLTINSLQPEDFATYYCQQSYSTTWTFGQGTKVELK
modifications: Chemically Synthesized, ALZ.4A6 Heavy Chain; Chemically Synthesized, ALZ.4A6 Light Chain
Aβ42 conformers
  Binding preference among Aβ42 conformers: preferentially bind Aβ fibrils
Aβ42 conformers; C-terminal biotinylated ADDLs/globulomers, read-out: Calculated affinity constant (KD), CTB oligo
  Kd: > 2000 nM
Aβ42 conformers; N-terminal biotinylated monomers, read-out: Calculated affinity constant (KD), NTB mono
  Kd: > 2000 nM

B3: 4G1: human anti-amyloid mAb cloned from B cells of an Alzheimer's patient; heavy chain SEQ ID NO:61, light chain SEQ ID NO:63 (antibody, V domains shown)
VH: EEHLVESGGALVQPGGSLRLSCEASGFTFRSYWMTWVRQAPGKGLEWLANIKQDGSDYYYVDSVKGRFTISRDNAKNTLYLQMNNLRADDTAVYFCARDARYRDTTWPQYYFYYFMDVWGKGTTVTVSS
VL: DIQLTQSPSSLSASIGDRVTVTCRASQSISNYLNWYQQKPGKAPKLLIYAASNLHTGVPSRFSGSGSGTHFTLTISSLQPEDFATYYCQLSYNNPRTFGPGTTVDIR
modifications: Chemically Synthesized, ALZ.4G1 Heavy Chain; Chemically Synthesized, ALZ.4G1 Light Chain
[8]
  Binding to Tau PHF: notable for binding to Tau PHF
